# Measured values reported in the FLAb antibody collection.
# Substitutions are numbered along the chain they refer to. “And” between values parts separate entries of the source, which are not always exact repeats. Identical values can stand only once.
# B1: unnamed (protein)
# chain 1: EVQLVESGGGLVQPGGSLRLSCAASGFTFSSHDMHWVRQATGKGLEWVSGIGTAGDTYYPDSVKGRFTISRENAKNSLYLQMNSLRAGDTAVYYCARDRYSPTGHYYGMDVWGQGTTVTVSS
# chain 2: DIQMTQSPSTLSASVGDRVTITCRASQSISSWLAWYQQKPGKAPKLLIYKASSLESGVPSRFSGSGSGTEFTLTISSLQPDDFATYYCKQYADYWTFGQGTKVEIK
# B2: unnamed (protein)
# chain 1: QVKLQESGAELARPGASVKLSCKASGYTFTNYWMQWVKQRPGQGLDWIGAIYPGDGNTRYTHKFKGKATLTADKSSSTAYMQLSSLASEDSGVYYCARGEGNYAWFAYWGQGTTVTVSS
# chain 2: DIELTQSPASLSASVGETVTITCQASENIYSYLAWHQQKQGKSPQLLVYNAKTLAGGVSSRFSGSGSGTHFSLKIKSLQPEDFGIYYCQHHYGILPTFGGGTKLEIK
# B3: unnamed (protein)
# chain 1: QAYLQQSGAELVRPGASVKMSCKASGYTFTSYNMHWVKQTPRQGLEWIGAIYPGNGDTSYNQKFKGKATLTVDKSSSTAYMQLSSLTSEDSAVYFCARVVYYSNSYWYFDVWGTGTTVTVSG
# chain 2: QIVLSQSPAILSASPGEKVTMTCRASSSVSYMHWYQQKPGSSPKPWIYAPSNLASGVPARFSGSGSGTSYSLTISRVEAEDAATYYCQQWSFNPPTFGAGTKLELK
# B4: unnamed (protein)
# chain 1: QAYLQQSGAELVRPGASVKMSCKASGYTFTSYNMHWVKQTPRQGLEWIGGIYPGNGDTSYNQKFKGKATLTVGKSSSTAYMQLSSLTSEDSAVYFCARYDYNYAMDYWGQGTSVTVSS
# chain 2: B3 chain 2 with P50T, L72F, S91T, A99G, K102R, L105I
# B5: unnamed (protein)
# chain 1: QVQLQESGPGLVRPSQTLSLTCTVSGYSITSDHAWSWVRQPPGRGLEWIGYISYSGITTYNPSLKSRVTMLRDTSKNQFSLRLSSVTAADTAVYYCARSLARTTAMDYWGQGSLVTVSS
# chain 2: DIQMTQSPSSLSASVGDRVTITCRASQDISSYLNWYQQKPGKAPKLLIYYTSRLHSGVPSRFSGSGSGTDFTFTISSLQPEDIATYYCQQGNTLPYTFGQGTKVEIK
# B6: unnamed (protein)
# chain 1: EVQLVQSGAEVKKPGESLKISCKGSGYSFTTYWLGWVRQMPGKGLDWIGIMSPVDSDIRYSPSFQGQVTMSVDKSITTAYLQWNSLKASDTAMYYCARRRPGQGYFDFWGQGTLVTVSS
# chain 2: DIQMTQSPSSLSASVGDRVTITCRASQGISSWLAWYQQKPEKAPKSLIYAASSLQSGVPSRFSGSGSGTDFTLTISSLQPEDFATYYCQQYNIYPYTFGQGTKLEIK
# B7: unnamed (protein)
# chain 1: QVQLVQSGAEVKKPGASVKVSCKASGYIFITYWMTWVRQAPGQGLEWMGQIFPASGSADYNEKFEGRVTMTTDTSTSTAYMELRSLRSDDTAVYYCARGGGGFAYWGQGTLVTVSS
# chain 2: DIQMTQSPSSLSASVGDRVTITCRTSENIYSYLAWYQQKPGKAPKLLIYNAKTLAEGVPSRFSGSGSGTDFTLTISSLQPEDFATYYCQHHYGIPFTFGQGTKVEIK
# B8: unnamed (protein)
# chain 1: EVQLVQSGAEVKKPGESLKISCKGSGYSFTDYYMKWARQMPGKGLEWMGDIIPSNGATFYNQKFKGQVTISADKSISTTYLQWSSLKASDTAMYYCARSHLLRASWFAYWGQGTMVTVSS
# chain 2: DIVMTQSPDSLAVSLGERATINCESSQSLLNSGNQKNYLTWYQQKPGQPPKPLIYWASTRESGVPDRFSGSGSGTDFTLTISSLQAEDVAVYYCQNDYSYPYTFGQGTKLEIK
# B9: unnamed (protein)
# chain 1: EVQLVESGGGLVQPGGSLRLSCAASGFTFSSYVMSWVRQAPGKGLEWVATISSGGSYTYYPDSVKGRFTISRDNAKNTLYLQMNSLRAEDTAVYYCARRGDSMITTDYWGQGTLVTVSS
# chain 2: DIQMTQSPSSLSASVGDRVTITCKASQDVGTAVAWYQQKPGKAPKLLIYWASTRHTGVPSRFSGSGSGTDFTLTISSLQPEDFATYYCQQYSSYRTFGQGTKVEIK
# B10: unnamed (protein)
# chain 1: QMQLVESGGGVVQPGRSLRLSCAASGFTFRTYGMHWVRQAPGKGLEWVAVIWYDGSNKHYADSVKGRFTITRDNSKNTLNLQMNSLRAEDTAVYYCARAPQWELVHEAFDIWGQGTMVTVSS
# chain 2: SYVLTQPPSVSVAPGQTARITCGGNNLGSKSVHWYQQKPGQAPVLVVYDDSDRPSWIPERFSGSNSGNTATLTISRGEAGDEADYYCQVWDSSSDHVVFGGGTKLTVL
# B11: unnamed (protein)
# chain 1: QVQLVESGGGLVKPGGSLRLSCAASGFTFSDYYMNWIRQAPGKGLEWVSYISSSGSIIYYADSVKGRFTISRDNAKNSLYLQMNSLRAEDTAVYYCAREGRIAARGMDVWGQGTTVTVSS
# chain 2: DIQMTQSPSSLSASVGDRVSITCRPSQSFSRYINWYQQKPGKAPKLLIHAASSLVGGVPSRFSGSGSGTDFTLTISSLQPEDFATYYCQQTYSNPPITFGQGTRLEMK
# B12: unnamed (protein)
# chain 1: QVQLQQSGAEVKKPGSSVRVSCKASGGTFNNNAINWVRQAPGQGLEWMGGIIPMFGTAKYSQNFQGRVAITADESTGTASMELSSLRSEDTAVYYCARSRDLLLFPHHALSPWGRGTMVTVSS
# chain 2: SSELTQDPAVSVALGQTVRVTCQGDSLRSYYASWYQQKPGQAPVLVIYGKNNRPSGIPDRFSGSSSGNTASLTITGAQAEDEADYYCSSRDSSGNHWVFGGGTELTVL
# B13: unnamed (protein)
# chain 1: EVQLVESGGGLVQPGGSLRLSCAASGFTFSSSGMSWVRQAPGKGLEWVSVIASSGSNTYYADSVKGRFTISRDNSKNTLYLQMNSLRAEDTAVYYCARSIFYTTWGQGTLVTVSS
# chain 2: not shown
# B14: unnamed (protein)
# chain 1: QVQLQQSGAELVKPGASVKLSCKASGYTFRSYDINWVRQRPEQGLEWIGWIFPGDGSTKYNEKFKGKATLTTDKSSSTAYMQLSRLTSEDSAVYFCARWTVVGPGYFDVWGAGTTVTVSS
# chain 2: QIVLTQSPAIMSASPGEKVTITCSASSSVSYMNWFQQKPGTSPKLWIYSTSNLASGVPARFSGSGSGTSYSLTISRMEAEDAATYYCQQRSSYPNTFGGGTKLEIK
# B15: unnamed (protein)
# chain 1: QVQLVESGGGVVQPGRSLRLSCAASGFTFSSYGMHWVRQAPGKGLEWVAVIWYDGSNKYYADSVKGRFTISRDNSKNTLYLQMNSLRAEDTAVYYCARDPRGATLYYYYYGMDVWGQGTTVTVSS
# chain 2: DIQMTQSPSSLSASVGDRVTITCRASQSINSYLDWYQQKPGKAPKLLIYAASSLQSGVPSRFSGSGSGTDFTLTISSLQPEDFATYYCQQYYSTPFTFGPGTKVEIK
# B16: unnamed (protein)
# chain 1: EVQMVQSGAEVKKPGEPLKISCKGSGYKFGTHWIGWVRQRPGKGLEWMGIIHPADSETKYSPSFQGQVSFSADKSSNTAYLHWSTLRASDTAMYYCARRSGSSSWYALDFWGQGTMVTVSS
# chain 2: QSVLTQSPSASGTPGQRVTISCSGGSSNIGSNTVNWYQQFPGAAPKLLIYTNNQRPSGVPDRFSGSKSGTSASLAISGLQSEDEADYYCATWDDSLNGLYVFGTGTKVTVL
# B17: unnamed (protein)
# chain 1: QVQLVQSGAEVKKPGSSVKVSCKASGYTFTDYEMHWVRQAPGQGLEWIGAVAPETGGTAYNQKFKGRATITADKSTSTAYMELSSLRSEDTAVYYCTSTVVPFAYWGQGTLVTVSS
# chain 2: QIQLTQSPSSLSASVGDRVTITCSASSSVSYMYWYQQKPGKAPKAWIYRTSNLASGVPSRFSGSGSGTDYTLTISSLQPEDFATYYCQQYQSLPLTFGGGTKVEIK
# B18: unnamed (protein)
# chain 1: QVQLVQSGAEVKKPGASVKVSCKASGYTFTNYGLSWVRQAPGQGLEWMGWISANNGDTNYGQEFQGRVTMTTDTSTSTAYMELRSLRSDDTAVYYCARDSSSSWARWFFDLWGRGTLVTVSS
# chain 2: SYVLTQPPSVSVAPGKTARITCGGNIIGSKLVHWYQQKPGQAPVLVIYDDGDRPSGIPERFSGSNSGNTATLTISRVEAGDEADYYCQVWDTGSDPVVFGGGTKLTVL
# B19: unnamed (protein)
# chain 1: QGQLVQSGAEVKKPGASVKVSCKASGYTFTDYEMHWVRQAPIHGLEWIGVIESETGGTAYNQKFKGRVTITADKSTSTAYMELSSLRSEDTAVYYCAREGITTVATTYYWYFDVWGQGTTVTVSS
# chain 2: DVVMTQSPLSLPVTLGQPASISCRSSQSIVHSNGNTYLEWYLQKPGQSPQLLIYKVSNRFSGVPDRFSGSGSGTDFTLKISRVEAEDVGVYYCFQGSHVPLTFGQGTKLEIK
# B20: unnamed (protein)
# chain 1: QVQLQQWGAGLLKPSETLSLTCAVYGGSFSGYYWSWIRQPPGKGLEWIGEINHSGSTNYNPSLKSRVTISVDTSKNQFSLKLSSVTAADTAVYYCARGYYDILTGYYYYFDYWGQGTLVTVSS
# chain 2: EIVLTQSPATLSLSPGERATLSCRASQSVSRYLAWYQQKPGQAPRLLIYDASNRATGIPARFSGSGSGTDSTLTISSLEPEDFAVYYCQQRSNWPRTFGQGTKVEIK
# Test: patients with anti-drug antibodies; higher = more immunogenic
row,Protein,patients with anti-drug antibodies
1,B1,3%
2,B2,68.1%
3,B3,45.5%
4,B4,0%
5,B5,2%
6,B6,4%
7,B7,6.5%
8,B8,17.5%
9,B9,0%
10,B10,2.1%
11,B11,2.9%
12,B12,2.4%
13,B13,26%
14,B14,28%
15,B15,2% and 0%
16,B16,2.1%
17,B17,0%
18,B18,0.5%
19,B19,1%
20,B20,4.4%
